How the values were obtained:
Int^C-mCitrine-Tom7 = assay: protein trans-splicing
Int^C-mCitrine-hFis1 = assay: protein trans-splicing

Substance Tom20-mCherry-Int^N has a percent of Tom20-FP1 spliced to the partner (Int^C-mCitrine-Tom7) of 30% and a percent of Tom20-FP1 spliced to the partner (Int^C-mCitrine-hFis1) of 50%.

From PMC8684756
